The source of these data is the RNAGym collection of RNA variant scans (doi:10.7554/elife.80360).

To fix the notation:
B1: HDV Ribozyme (parent)
chain: GGCCGGCAUGGUCCCAGCCUCCUCGCUGGCGCCGGCUGGGCAACAUUCCGAGGGGACCGUCCCCUCGGUAAUGGCGAAUGGGACCCA

The variants in the data set derive from B1. The experiment in a line: self-cleavage, relative activity (ratio to wild type); higher = more cleavage; co-transcriptional.
In the case of G5C C44G, the self-cleavage was 0.
With G5A U46G, the self-cleavage turned out to be 0.161.
Regarding G5C C33A, the self-cleavage came out at 0.26.
As for G5C C33G, the self-cleavage came to 1.43.
The value for C4A G67U was 0.354; that for C4U U60A was 0.831.
The value for G5C C63A was 0.383.
The value for G5C C63G was 0.
With G5C C63U, the self-cleavage amounted to 0.0437.
The value for C4A C66U was 0.361; that for G5U A87C was 0.277; that for G5U A87G was 0.636.
The value for G5U G29A was 0.285; that for C4U G38C was 0.116.
The value for C4U C58A was 0.852.
As for C4U C58U, the self-cleavage was 1.15.
The value for G5U G68C was 0.359; that for C4U G80A was 0.242.
The value for C4U G54U was 0.789; that for C4U G54A was 0.791.
The value for G5U G39C was 0.26; that for C4A G31C was 0.0739; that for G5C G29A was 0.147.
Take C4U C84A: the self-cleavage was 0.712.
The value for C4U C84U was 0.514; that for G5A U9A was 0.332; that for C4G A70C was 0.244.
The value for C4G A70U was 0.35; that for C4A G5C was 0.232; that for C4A G5U was 0.122.
Take C4U C85A: the self-cleavage came to 0.341.
On to C4G A51G, for which the self-cleavage stood at 0.554.
The value for C4A G11U was 0; that for G5U G54U was 0.612; that for G5A C49G was 0.237.
As to C4U C41G, the self-cleavage stood at 0.374.
The value for C4G G59A was 0.198; that for G5U A45C was 0.0875; that for G5U A45G was 0.692.
The value for G5A G39A was 0.181; that for G5A G39U was 0.101.
The value for G5A C36G was 0; that for C4A G50C was 0.456; that for C4A G50A was 0.172.
As for C4G C7A, the self-cleavage was found to be 0.
The value for C4G C7G was 0.0875; that for G5C C26G was 0.138; that for C4U U79G was 0.185.
For C4U C19A, the self-cleavage was found to be 0.0678.
As to C4U G28C, the self-cleavage turned out to be 0.
The value for G5A G11C was 0.214; that for G5A G11A was 0.101.
For G5C A56G, the self-cleavage amounted to 0.237.
The value for G5C A56U was 0.314; that for C4G U23C was 0.208; that for C4A G68U was 0.453.
The value for G5A C33G was 0.0615; that for C4U G11U was 0.219; that for G5A G40A was 0.0992.
The value for G5U A43G was 0; that for G5U A43U was 0.0978; that for C4U A51U was 0.85.
Take C4U A51G: the self-cleavage worked out at 0.467.
For the variant G5C C18U, the self-cleavage stood at 0.142.
G5U A71G: the self-cleavage was found to be 0.361.
As to G5U C62G, the self-cleavage was found to be 0.346.
Turning to G5A G34A, the self-cleavage was determined as 0.0978.
Regarding G5A G34C, the self-cleavage is 0.101.
The value for C4G G55A was 0.305; that for C4U C48U was 0.931; that for C4G C44A was 0.0346.
For the variant G5C C22A, the self-cleavage worked out at 0.
For the variant G5U A8C, the self-cleavage worked out at 0.0875.
The value for C4G A78U was 0.116.
The value for C4G A78C was 0.0923.
The value for G5U G73U was 0.122; that for G5U G73A was 0.0665.
Consider G5C A8U, for which the self-cleavage turned out to be 0.0665.
The value for G5C A8G was 0.
The value for C4U C66A was 0.755; that for C4U C66U was 0.704; that for C4U C18U was 0.323.
In the case of C4U A42U, the self-cleavage is 0.284.
Consider C4G G38C, for which the self-cleavage was found to be 0.
The value for G5U G59U was 0.633.
Regarding C4U C57A, the self-cleavage came out at 1.08.
The value for G5A U79C was 0.0252; that for C4A U23G was 0.0449; that for C4G C64U was 0.214.
Regarding C4G G76U, the self-cleavage stood at 0.469.
With G5U C22A, the self-cleavage is 0.0415.
The value for C4A G38C was 0; that for C4G U72C was 0.0426.
The value for G5U G74A was 0.125; that for G5U G74C was 0.0475.
Turning to G5A G50U, the self-cleavage came out at 0.143.
Regarding G5U G28U, the self-cleavage was determined as 0.115.
The value for G5U G28A was 0; that for C4U A45U was 0.458; that for C4U A45G was 0.862.
The value for C4U A45C was 0.475; that for C4A G35U was 0.0369; that for C4A G35C was 0.086.
On to G5U A70G, for which the self-cleavage worked out at 0.375.
Consider C4G U46C, for which the self-cleavage was 0.
Take C4G U46G: the self-cleavage amounted to 0.
Regarding C4U G74U, the self-cleavage stood at 0.163.
The value for C4G C26U was 0.684; that for C4U C64U was 0.695.
The value for C4U C64A was 0.639; that for C4G U65C was 0.18.
The value for C4G G53U was 0.424.
Regarding G5C A16C, the self-cleavage was 0.0875.
For C4U, the self-cleavage was determined as 0.758.
The value for C4G was 0.376.
The value for G5C C66G was 0.151; that for C4U A71U was 0.776.
For the variant C4A G17C, the self-cleavage is 0.0386.
With G5A C22U, the self-cleavage was 0.0831.
For the variant G5A C22G, the self-cleavage was determined as 0.0554.
In the case of G5C U9A, the self-cleavage came out at 0.138.
For the variant G5U C85G, the self-cleavage was determined as 0.289.
G5A G76A: the self-cleavage came to 0.229.
On to C4U G35A, for which the self-cleavage came out at 0.173.
The value for C4U G35C was 0.119.
Take G5C G55C: the self-cleavage was determined as 0.0898.
For C4A C64A, the self-cleavage stood at 0.157.
For C4A C64G, the self-cleavage amounted to 0.386.
Take C4G G39A: the self-cleavage came to 0.0183.
For the variant C4G G39C, the self-cleavage turned out to be 0.0326.
The value for C4U G76U was 0.831; that for C4U G76C was 0.984.
Turning to G5U C21U, the self-cleavage came out at 0.0462.
As to G5U C21G, the self-cleavage was found to be 0.0791.
On to C4U U72G, for which the self-cleavage came out at 0.361.
The value for G5C G81A was 0.104; that for G5U C84A was 0.302.
Consider G5A U37A, for which the self-cleavage amounted to 0.
As to C4U C13G, the self-cleavage is 0.0449.
On to C4U A83C, for which the self-cleavage is 0.111.
For G5A C62G, the self-cleavage amounted to 0.0594.
As for G5A C7G, the self-cleavage worked out at 0.0875.
The value for G5A A45G was 0.196; that for G5C C58A was 0.162; that for C4G C19U was 0.0779.
G5U C15A: the self-cleavage is 0.0831.
G5U C15U: the self-cleavage amounted to 0.723.
Consider G5U C32A, for which the self-cleavage is 0.0875.
As for G5U C32G, the self-cleavage was 0.196.
The value for C4A G25A was 0.089.
The value for C4G C22G was 0.
The value for C4A C63U was 0.344.
As to G5C G54C, the self-cleavage is 0.158.
G5C G54U: the self-cleavage was 0.217.
Turning to C4G G28C, the self-cleavage is 0.101.
The value for C4U G59U was 0.973.
For C4U G59A, the self-cleavage is 0.589.
For the variant G5U C64G, the self-cleavage stood at 0.161.
On to G5U C64U, for which the self-cleavage is 0.499.
The value for C4G G68U was 0.227.
The value for C4G G68C was 0.475.
The value for G5U A78C was 0.185; that for G5U A78U was 0.0723.
Take C4U C24U: the self-cleavage is 0.237.
The value for C4A G28C was 0.0396; that for C4G A77C was 0; that for C4G A77U was 0.0354.
